Source: publication PMC2211816

Target: GST-KLF2 (UniProt Q60843 1-354)
Experiment: EMSA

Sequence of GST-KLF2 (Q60843 whole entry): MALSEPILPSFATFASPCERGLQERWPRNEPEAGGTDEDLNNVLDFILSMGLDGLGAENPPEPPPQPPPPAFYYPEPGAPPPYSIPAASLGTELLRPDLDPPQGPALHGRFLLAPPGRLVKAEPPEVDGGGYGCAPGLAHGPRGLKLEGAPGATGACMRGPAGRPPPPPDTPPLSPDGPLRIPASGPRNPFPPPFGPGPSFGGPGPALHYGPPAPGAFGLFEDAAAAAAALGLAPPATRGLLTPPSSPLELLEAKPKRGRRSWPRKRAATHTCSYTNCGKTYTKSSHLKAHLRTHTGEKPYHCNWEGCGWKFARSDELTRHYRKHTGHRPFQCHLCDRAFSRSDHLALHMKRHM

B1: eNOS promoter KLF site (-644 to -652) probe (dsDNA)
DNA 1: GTCATGGGGGTGTGGGGGTTCCAGGAAAT
DNA 2: ATTTCCTGGAACCCCCACACCCCCATGAC
B1: binds.
